{"source": "patent US20160356775", "proteins": {"B1": {"name": "recombinant LMTK3 kinase domain (protein)", "chain": "LSYLQEIGSGWFGKVILGEIFSDYTPAQVVVKELRASAGPLEQRKFISEAQPYRSLQHPNVLQCLGLCVETLPFLLIMEFCQLGDLKRYLRAQRPPEGLSPELPPRDLRTLQRMGLEIARGLAHLHSHNYVHSDLALRNCLLTSDLTVRIGDYGLAHSNYKEDYYLTPERLWIPLRWAAPELLGELHGTFMVVDQSRESNIWSLGVTLWELFEFGAQPYRHLSDEEVLAFVVRQQHVKLARPRLKLPYADYWYDILQSCWRPPAQRPSASDLQLQLTYL"}}, "key": {"[1]": {"target": "T1, GST-recombinant human FoXO3a, O43524", "T1 chain": "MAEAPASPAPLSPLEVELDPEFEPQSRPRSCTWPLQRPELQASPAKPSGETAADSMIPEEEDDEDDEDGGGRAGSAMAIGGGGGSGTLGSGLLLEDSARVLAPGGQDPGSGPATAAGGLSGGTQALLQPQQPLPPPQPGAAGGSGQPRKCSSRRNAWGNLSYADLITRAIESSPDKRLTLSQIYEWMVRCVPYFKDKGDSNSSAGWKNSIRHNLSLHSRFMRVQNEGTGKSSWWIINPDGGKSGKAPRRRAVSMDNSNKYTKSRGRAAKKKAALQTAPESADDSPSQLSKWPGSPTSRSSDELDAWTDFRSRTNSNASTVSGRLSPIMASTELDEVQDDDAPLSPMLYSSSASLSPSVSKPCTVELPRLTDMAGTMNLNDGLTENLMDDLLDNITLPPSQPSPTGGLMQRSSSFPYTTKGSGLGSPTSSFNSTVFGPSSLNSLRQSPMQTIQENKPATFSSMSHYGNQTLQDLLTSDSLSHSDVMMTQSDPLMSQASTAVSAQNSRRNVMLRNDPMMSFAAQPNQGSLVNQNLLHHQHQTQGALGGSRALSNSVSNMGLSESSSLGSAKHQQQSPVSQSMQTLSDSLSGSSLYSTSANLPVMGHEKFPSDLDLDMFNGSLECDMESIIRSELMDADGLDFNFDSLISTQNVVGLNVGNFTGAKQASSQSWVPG"}, "[2]": {"target": "T2, full length recombinant human ERα protein (Invitrogen), P03372", "T2 chain": "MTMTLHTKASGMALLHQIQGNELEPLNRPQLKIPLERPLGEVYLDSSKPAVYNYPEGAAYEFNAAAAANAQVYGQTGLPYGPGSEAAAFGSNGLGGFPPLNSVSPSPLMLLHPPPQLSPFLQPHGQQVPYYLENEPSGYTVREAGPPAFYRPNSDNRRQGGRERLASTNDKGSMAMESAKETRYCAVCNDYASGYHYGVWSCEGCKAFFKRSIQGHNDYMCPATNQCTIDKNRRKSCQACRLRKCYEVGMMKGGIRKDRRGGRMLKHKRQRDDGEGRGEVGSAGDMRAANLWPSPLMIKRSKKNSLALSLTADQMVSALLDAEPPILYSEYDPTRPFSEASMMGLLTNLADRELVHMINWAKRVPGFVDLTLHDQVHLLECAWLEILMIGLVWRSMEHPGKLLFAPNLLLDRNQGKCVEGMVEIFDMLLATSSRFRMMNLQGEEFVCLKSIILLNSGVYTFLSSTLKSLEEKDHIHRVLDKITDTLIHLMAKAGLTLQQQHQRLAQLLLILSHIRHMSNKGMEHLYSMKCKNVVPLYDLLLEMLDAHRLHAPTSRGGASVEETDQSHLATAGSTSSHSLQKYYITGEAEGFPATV"}, "[3]": {"target": "recombinant PKC (Promega)"}}, "data": [{"protein": "B1", "values": [{"measurement": "in vitro kinase assay (32P autoradiography)", "setting": "[1]", "result": "LMTK3 directly phosphorylates ... FoxO3a"}, {"measurement": "in vitro phosphorylation followed by in vitro proteasome degradation assay", "setting": "[2]", "result": "phosphorylation of ERα by LMTK3 (FIG. 20d) rescued ERα from in vitro proteasome-mediated degradation (FIG. 20e)"}, {"measurement": "in vitro kinase assay, PKC phosphorylation of histone", "setting": "[3]", "result": "LMTK3 inhibits the ability of PKC to phosphorylate histone"}]}]}
